Measurements from publication PMC10424185, “C-2 Thiophenyl Tryptophan Trimers Inhibit Cellular Entry of SARS-CoV-2 through Interaction with the Viral Spike (S) Protein” (Journal of Medicinal Chemistry, 2023).

Target: S:D614G protein (SARS-CoV-2 spike with the D614G mutation, form used for cryoEM) (SARS-CoV-2 | not stated)
Experiment: cryo-EM structure

S:D614G protein (SARS-CoV-2 spike with the D614G mutation, form used for cryoEM)
stoichiometry N: 3
